Tests used:
purified protein [1] = substrate: O=C(O)O; experiment: purified protein; settings: 5 mM KCNO, pH 7.7, 27°C
purified protein [2] = substrate: N#CO; experiment: purified protein; type: biochemical, Arabidopsis thaliana; settings: 5 mM NaHCO3, pH 7.7, 27°C
[3] = target: the molecule itself; experiment: SEC; His-tagged proteins after Ni2+ affinity chromatography on a Superdex 200 10/300 GL column; molecular weight calculated against high molecular weight standards
purified protein [4] = substrate: N#CO; experiment: purified protein; type: biochemical, Oryza sativa; settings: 5 mM NaHCO3, pH 7.7, 27°C

Protein	Km (purified protein [1]) [µM]	Km (purified protein [2]) [µM]	stoichiometry N [3]	Km (purified protein [4]) [µM]
His-tagged recombinant AtCYN (enzyme, Arabidopsis thaliana, UniProt O22683 1-168, looked up, cyanase (AtCYN) of Arabidopsis thaliana, 168 aa, NP_188991; cDNA amplified with primers from the start codon to the stop codon, cloned into pET15b; pET15b construct (BamH I and Xho I sites); calculated monomer with tag 21.9 kDa; also called His:AtCYN; source: E. coli BL21 (DE3), purified (Ni2+ chelating column, Superdex 200); copies: 10) MEAAKKQSVTNQLLAVKSASGKTFSQLAAETGLTNVYVAQLLRRQAQLKPDTVPKLKEALPALTDELIGDMMSPPWRSYDPNLIQEPTIYRLNEAVMHFGESIKEIINEDFGDGIMSAIDFYCSVDKIKGVDGNNRVVVTLDGKYLSHSEQRTENMVSRLNLKGGTSE	790	940	10	
His-tagged recombinant OsCYN (enzyme, Oryza sativa, UniProt Q9FWK4 1-168, looked up, cyanase (OsCYN) of Oryza sativa (cv. Zhonghua 11), 168 aa, NP_001064827; cDNA amplified with primers from the start codon to the stop codon, cloned into pET15b; pET15b construct (BamH I and Xho I sites); calculated monomer with tag 22.0 kDa; also called His:OsCYN; source: E. coli BL21 (DE3), purified (Ni2+ chelating column, Superdex 200); copies: 10) MEGGGGERAAGVVRRLMAAKAESRKSFSEIGEEAGLTNVYVAQLLRRQAQLKPETAPALRAAVPGLTDDLVALMMEPPFRSYHPDIVHEPAIYRLNEAVMHFGESIKEIINEEFGDGIMSAIDFYCSVDKVQGADGKDRVVVTFDGKYLPYSEQRSDHMMSRLTRKTS	630		10	7380

From paper PMC3070753, “Biochemical and Structural Properties of Cyanases from Arabidopsis thaliana and Oryza sativa” (PLoS ONE, 2011)
